Experiment: yeast display, Sf9 membrane polyspecificity reagent, FACS + sequencing; frameworks hold sequencing errors
In short: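 Using colony PCR, genes from sorted yeast display clones were amplified, then sequenced on MiSeq at 2 × 250 and filtered by CDR length. The clones had been stained with 10% biotinylated, detergent-solubilized Sf9 membrane reagent for 1 hour at 4 °C and sorted by FACS into low and high (top ~1%) gates on anti-HA and streptavidin fluorescence. Polyreactivity labels come from the gate of origin.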

Sequence | polyreactivity (PSR sort gate)
QVQLVESGGGLVQAGGSLRLSCAASGRIIRDNAMGWYRQAPGKERELVAAISRRGGSTYYADSVKGRFTISRDNAKNTVYLQMNSRKPEDTAVYYCNKTTHSRTFRYDYWGQGTQVTVSS | low polyreactivity
QVQLVESGVGIVQAGGILRLSCAASGSIFFFYAMGWYRQAPAKERELVAAITSSDGDTYYADSVKGRFTISRDNAKNTVYLEMNSLKPEDTAVYYCAVRSSWYEGDYWGQGTQVTVSS | low polyreactivity
QVQLVESGGGLVQAGGSLRLSCAASGSTFGWYAMGWYREAPGKERELVAAISWLGTSTYYADSVKGRFTISRDNAKNTVYLQLNSLKPEDTAVYFCAADAYDVYYAYYYWGQGTQVTVSS | high polyreactivity
QVQLVESGGGLVQAGGSLRLSCAASGRTFYYYAMGWYRQAPGKERELVAAISWSGGSTYYADSVKGRFTISRDNAKNTVYLQMNSLKPEDTAVYYCAARLPENSFGLYYYWGQGTQVTVSS | high polyreactivity
QVQLVESGGGLVQAGGSLRLSCAASGFTFSYYAMGGYRQAPGKERELVAGIDYSGGSTYYADSVKGRFTISRDNAKNTVYLQMNSQKPEDTAVFYCNAVYARKYYYSHGYDYWGQGTQVTVSS | high polyreactivity
QVQLVESGGGLVQAGGSLRLSCAASGSTFFPNGMGWYRQAPGKERELVAAITQDGGSTYYADSVKGRFTISRDNAKNTVYLQMNSLKPEDTAVYYCAASAGPYYEYGYWGQGTQVTVSS | low polyreactivity
QVQLVESGGGLVQAGGSLRLSCAASASIFLEYAMGWYRQAPGKERELVAGITISGGSTYYADSVKGRFTISRDNAKNTVYLQMNSLKPEDSAVYYCAKVAPRSSSSLEYYYWGQGTQVTVSS | low polyreactivity
QVQLVESGGGLVKAGGSLRLSCDSSGGTFSTYAMGWYRQAPGKERELVAAISWRGGSTYYAVSVKGRFTISRDNAKNTVYLQMNSLKPEYNAVYYCAAYYYRGWLLYWDEMYYWGQGTQVTVSS | high polyreactivity
HVQLVESGGGLVQAGGSLPLSCAASGRTFDHYAMGWYRQAPGKEREFVAAITSGGSTYYADSVKGRFRISRDNAKNTVYLQMNSLKPVDTAVYYCNNDSSFWGYYIAQVNERDYWGQGTQVTVSS | low polyreactivity
QVQLVESGGGLVQAGGSLRLSCAASGSIFGAYAMGWYRQAPGKESELVAVIRWGGGSTYADSVKGRFTISRDNAKNTVYLQMNSLKPEDTAVYYCNRDKSWADLYSHAYDYWGQGTQVTVSS | low polyreactivity
QVQLVESGGGLVQAGGSLRLSCAASGFIFLRYGMGWYRQAPGKERELVASIDSSGGSTYADSVKGRFTISRDNEKNTVFLQMKSLKPEDTAVYYCAADYYIVSVRDYWGQGTQVTVSS | low polyreactivity
QVQLVESGGGLVQAGGSLRLSCAASGSTFNTYDMGWYRQAPGKERELVAAISFSDASTYYADSVKGRFTISRDNAKYTVYLQMNSLKPEDTAVYYCAADTRRITTVTTGEYGYWGQGTQVTVSS | low polyreactivity
QVQLVESGGGLVLAGGSLRLSCAASGRIFSYYAMGWYRQAPGQERELVAAISWNGGSTYYADSVKGRFTISRDNAKNTVYLQMNSLKPEDTAVYYCAVLPHYEYDYWGQGTQVTVSS | high polyreactivity
QVQLVESVGGLVEAGGSLRLSCAASGSILGGYAMGWYLQAPGKESELVAAITSSGGRTYYADCVKGRFTMSRDNAKNTVYLQMNSLKPEDTAVYYCAARYSRWRYNYKDYAYWGQGTQVTVSS | high polyreactivity
QVQLEESGGGLVQAGGSLRLTCAASGSTFYGYAMGWYRQAPGKERELVAAITRSGGSTYYADSVKVRFTISRDNAKYTVYLQMNSLKPEDTAVYYCNKYIGWYGTGSDYYWGQGTQVNVSS | high polyreactivity
QVQLVESGGGLVQAGGSLRLSCAASGSIFGYYAMGWYRQAPGKERELVAAIRWSDGSTYYADSVKGRFTISRDNAKNTVYLQMNSLKPEDTAVYYCAAETGWLYDYWGQGTQVTVSS | high polyreactivity
QVQLVESGGALLQAGGSLRLSCAASGRIFYHYAMGWYRQAPGKESELVAASTWSGVSTYYADSVKGRFTISRDNAKNTVDLQMNRLIPADTAVYYCATSSPYGVRRYSRGSWGQGTQVTVSS | high polyreactivity
QVQLVESGGGLVQAGGSLRLSCAASGSTFRFYAMGWYRQAPGKERELVAGITGSGDSTYYADSVKGRFTISRDNAKNTVYLQMNSLKPEDTAVYYCNKRFLFAGFDYLGQGTQVTVSS | low polyreactivity
PVQLVESGGGLVQAGGSLRLSCAASGSIFPSYAMGWYRQAPGKERELVATIGRGGTTNYADSVKGRFTISRDNAKNTVYLQKNSLKPEDTGVYYCNAERIWRYKYGYDYWGQGTQVTVSS | high polyreactivity
QVQLVESGGGLVQAGGSLRLSCAASGSIFRTYAMGWYRQAPGKERELVAAISQSGGSTYYADSVKGRFTISRDNAKNTVYLQMNSLKPEDTAVYYCNKYFTRRQSAVSLSPGKFDYWGQGTQVTVSS | high polyreactivity
QVQLVESGGGLVQAGGSLRLSCAASGRTFGANDMGWYRQAPGKDSELVAAITYSGGRTNYADSVKGRFTISRDNAKNSVYLQMNSLKPEDTAVYYCAAGGWRDRSRYNYWGQGTQVTVSS | high polyreactivity
QVQLVESGVGLVQAGGSLRLSCAASGFIFRFYTMGWYRQAPGKERELVAAISGSGGRTYYADSVKGRFTISRDYANNTVYVQMNRLKPEDTEVYYCNKQFLYPSYDYWGQGTQVTVSS | high polyreactivity

Sequence | polyreactivity (PSR sort gate)
QDQLVESGGGLVQARGSLRLSCAASGRIIKRYVMGWYRQAPGTERELVAAITSGGTNYADSVKGRFTISRDNAKNTVYLQMNSRKPEDTAVYSCAARYLYRAGSNYWGQGTQVTVSS | high polyreactivity
QVQLVESGGGLVQAGGSLRLSCAASARTFYRYAMGWYRQAPGKERELVAAITRRSGNTYYADSVKGRFTISRDNAKNTVYLQMNSLKPEDTAVYYFNTVYPRRLIFGYWGQGTQVTVSS | high polyreactivity
QVQLVESGGGLVQAGGSLRLSCAASGFIDAYTMGWYRQAPWKERELVAAITWSGGRTYYADSVKGRFTISRDNAKNTVYLQMNSLKPEDTAVYYCAKDVTPYSPDDDYWGQGTQVTVSS | low polyreactivity
QVQLVESGGGLVQAGGSLRLSCAASGLTFFYYAMGWYRQAPGKERELVAGISRSGGSTYYADSVKGRFTISRDNAKNTVYLQMISLKPEDTAVYYCAKRTLVASYIYREGEYWGQGTQVTVSS | high polyreactivity
QVQLVESGGGLVQAGGSLRLSCAASGITFYVYAMGSYTQAPGKEREFVAAISTRDGTTYADSEKGRFTISRDNAKNPFYLEMNSLKPVDTAVDYCAAAYYYDGQQGDFDYWGQGTQVTVSS | low polyreactivity
QVQLVESGGGLVQAGGSLRLSCAASGYTFRYYVMGWYRQAPGKERELVATISRGGRTNYADSVKGRFTISRDNAKNTVYLQMNSLKPEDTAVYYCNADWSRVPYRYDYWGQGTQVTVSS | high polyreactivity
QDQLVESGGGLVQAGGSLRLTCAASGSTFTTNVMGWYRQAPGKERDLVAAISWSSGSTYYADSVKGRFTISRDNAKNTVYLQMKSLKPEDTAVYYCAARLVIFYPYSRYYYWGQGTHVTVSS | high polyreactivity
QVQLVESGGGLVQAGGSLRLSCAASGSIFGYNAMGWYRQAPGKEREFVASIRYRGGSTYYADSVKGRFTISRDNAKNTVYLQMNSLKPEDTAVYYSAAYWWGVSKRQYGYWGQGTQVTVSS | high polyreactivity
QVQLVESGGGLVQAGGSLRLSCADSGSIFRVNAMGWYRQAPGKDRELVAAISSGGSTHYADSVKGRFTISRDNAKNTVYLQMNSLKPEDTAVYYCAVRYALVPYLWYYWGQGTQVTVSS | high polyreactivity
QVQLVESGGGLVQAGGSLRLSCAAYGRTLGYYAMGWYRPAPGQERELVAAITGSDGSTYADSVKGRFTISRDNAKNTVYLQMNSLKPEDTAVYYCNSKNEHGSLGFDYWGQGTQVTVSS | high polyreactivity
QVQLVESGGGLVQAGGSLRLSCASSGGTFEVNAMGWYRQAPGKERELVAAIDTSDGSTYYADSVKGRFTISRDNAKNTVYFQMNSLKPEDTSVYYCAAERLFRFWYSAYERYDYWGQGTQVTVSS | low polyreactivity
QVQLQESGGGLVQAGGCLSCTASGTIFGQGDMGWYRQAPGKERELVATINDGASTYYADSVKGRFTISRDKAKNTVYLQKNSLKPDDTAVYYCAVFKDITTYFGYLGQGTQVTVSS | low polyreactivity
QDQLVESGGGLVQAGGSHRLTCAASGFIFAYYAMGWYRQAPGKERELVAAISRSGARTYYADSVKGRFTISRDNAKNTVYLQMKSLKPEDTAVFYCSARIIVDVVGTKYYYWGQGTQVTVSS | high polyreactivity
QVQLVESGGGLVQAGGSLRLSCAASGGIFRVYAMGWYRQAPGKERELVAAISRSGSSTYYADSVKGRFTISRDNAKNTVYLQMNSLKPEDTAVYYCNAYSQYWLGNNYWGQGSQVTVSS | high polyreactivity
QVQLVESGGGLVQAGGSLRLSCAPSGFTFRRNAMGWYRQAPGKERELVAVITSSARTNYADSVKGRFTISRDNAKKTVYLEMNSLKPEDTAVYYCAARYHYGVWRERHGYWGQGTKVTVSS | high polyreactivity
QVQLVESGGGLVQAGGSLRLSCAASGRIFKKNAMGWYRQAPGKERELVAAIRGSGDSTFYADSVKGRFTISRDNAKNTVYLQMNSLKPEDTAVYYCAAGDVPRRIYLVYVGYLLDYWGQGTQVTVSS | low polyreactivity
QVQLVESWGGLVQAGGSLRLSCAASGSTFRSNAMGWYRQAPGKERELVAAITGSGGSTYYADSVKGRYTISRDNAKNTVYLQMNSLKPEDTAVYYCWGLGTQVTVSS | low polyreactivity
QVQLVESGGGLVQAGGSLRLSCAASGRTFLRYAMGWYRQAPGKERELVAAITSSGGSTFYADSVKGRFTISRDNAKNTVYLQMNSLKPEDSAVYYCAASVGRGYYWGQGTQVTVSS | high polyreactivity
QVQLVESGGGLVQEGGSLRLSCAASGSTFWVYVMGWYRPAAGKERELVAGISSRGGNTYYADSVKGRFTISRDKAKNSVYLQMNSLKPEDTAVYYCNAPYGGDYESARDYWGQGTQVTVSS | low polyreactivity
QVQLVESGGGLVQAGGSLRLSCAASGSIFFPYVMGWYRQAPGKERELVAAITYRAGSTYYADSVKGRFTISRDNAKNTVYLQMNSLKPEDTAVYYCAAVVSRSGEFGYWGQGTQVTVSS | low polyreactivity
QVQLVESGGGLVQAGGSLRLSCAASGRTFRVYAMGWYRQAPGKERELVATITSSGGSTYYADSVKGRFTISRDNAKNTVYLQMNSLKPEDTAVYYCNVSVYYNYDSSYYYWGQGTQVTVSS | low polyreactivity
